Data reported in patent EP2468776.

Biological target: T1, Slit2-His (UniProt O94813)
T1 chain: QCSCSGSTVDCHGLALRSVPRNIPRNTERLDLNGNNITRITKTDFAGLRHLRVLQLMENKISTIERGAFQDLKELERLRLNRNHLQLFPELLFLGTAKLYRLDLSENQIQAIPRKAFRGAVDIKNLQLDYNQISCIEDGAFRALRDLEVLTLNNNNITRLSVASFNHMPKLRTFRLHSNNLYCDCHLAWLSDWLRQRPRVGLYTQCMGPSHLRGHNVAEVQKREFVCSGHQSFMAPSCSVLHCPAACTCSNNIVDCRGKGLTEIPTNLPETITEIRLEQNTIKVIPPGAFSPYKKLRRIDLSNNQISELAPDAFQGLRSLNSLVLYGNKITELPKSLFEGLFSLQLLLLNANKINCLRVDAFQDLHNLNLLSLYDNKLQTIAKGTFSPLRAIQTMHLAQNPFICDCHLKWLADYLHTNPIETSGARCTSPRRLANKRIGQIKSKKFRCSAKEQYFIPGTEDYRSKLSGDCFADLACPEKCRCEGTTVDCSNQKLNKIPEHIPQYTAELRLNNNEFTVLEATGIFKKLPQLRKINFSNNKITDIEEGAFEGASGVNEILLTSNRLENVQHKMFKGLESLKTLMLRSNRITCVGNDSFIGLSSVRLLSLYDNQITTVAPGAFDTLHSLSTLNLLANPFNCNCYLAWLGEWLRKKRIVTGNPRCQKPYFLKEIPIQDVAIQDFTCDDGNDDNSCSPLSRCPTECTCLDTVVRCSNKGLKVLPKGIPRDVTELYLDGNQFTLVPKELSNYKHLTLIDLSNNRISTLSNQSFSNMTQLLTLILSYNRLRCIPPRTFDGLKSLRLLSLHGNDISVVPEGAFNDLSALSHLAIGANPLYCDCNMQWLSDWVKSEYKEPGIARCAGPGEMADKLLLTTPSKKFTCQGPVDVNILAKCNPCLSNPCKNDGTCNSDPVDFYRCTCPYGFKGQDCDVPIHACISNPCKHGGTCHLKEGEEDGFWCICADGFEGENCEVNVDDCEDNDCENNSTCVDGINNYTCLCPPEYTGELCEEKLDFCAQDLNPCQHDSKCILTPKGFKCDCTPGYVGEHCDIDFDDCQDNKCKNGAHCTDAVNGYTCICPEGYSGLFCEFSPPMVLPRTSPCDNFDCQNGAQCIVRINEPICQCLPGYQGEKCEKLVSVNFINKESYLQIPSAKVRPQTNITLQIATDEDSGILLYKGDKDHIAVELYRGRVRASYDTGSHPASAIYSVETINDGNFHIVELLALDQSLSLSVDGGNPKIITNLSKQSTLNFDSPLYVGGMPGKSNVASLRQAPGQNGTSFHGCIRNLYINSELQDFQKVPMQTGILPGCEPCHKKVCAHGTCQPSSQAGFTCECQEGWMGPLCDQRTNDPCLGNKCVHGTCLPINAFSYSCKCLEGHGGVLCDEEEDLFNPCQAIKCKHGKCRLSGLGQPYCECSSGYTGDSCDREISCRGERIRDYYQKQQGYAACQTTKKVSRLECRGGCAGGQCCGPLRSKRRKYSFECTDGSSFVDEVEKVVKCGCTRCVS
Experiment: SPR

binding result: no binding
B1: Robo4-Fc (protein)
chain: QDSPPQILVHPQDQLFQGPGPARMSCQASGQPPPTIRWLLNGQPLSMVPPDPHHLLPDGTLLLLQPPARGHAHDGQALSTDLGVYTCEASNRLGTAVSRGARLSVAVLREDFQIQPRDMVAVVGEQFTLECGPPWGHPEPTVSWWKDGKPLALQPGRHTVSGGSLLMARAEKSDEGTYMCVATNSAGHRESRAARVSIQEPQDYTEPVELLAVRIQLENVTLLNPDPAEGPKPRPAVWLSWKVSGPAAPAQSYTALFRTQTAPGGQGAPWAEELLAGWQSAELGGLHWGQDYEFKVRPSSGRARGPDSNVLLLRLPEKVPSAPPQEVTLKPGNGTVFVSWVPPPAENHNGIIRGYQVWSLGNTSLPPANWTVVGEQTQLEIATHMPGSYCVQVAAVTGAGAGEPSRPVCLLLEQAMERATQEPSEHGPWTLEQLRATLKRPEVIATCGVALWLLLLGTAVCIHRRRRARVHLGPGLYRYTSEDAILKHRMDHSDSQWLADTWRSTSGSRDLSSSSSLSSRLGADARDPLDCRRSLLSWDSRSPGVPLLPDTSTFYGSLIAELPSSTPARPSPQVPAVRRLPPQLAQLSSPCSSSDSLCSRRGLSSPRLSLAPAEAWKAKKKQELQHANSSPLLRGSHSLELRACELGNRGSKNLSQSPGAVPQALVAWRALGPKLLSSSNELVTRHLPPAPLFPHETPPTQSQQTQPPVAPQAPSSILLPAAPIPILSPCSPPSPQASSLSGPSPASSRLSSSSLSSLGEDQDSVLTPEEVALCLELSEGEETPRNSVSPMPRAPSPPTTYGYISVPTASEFTDMGRTGGGVGPKGGVLLCPPRPCLTPTPSEGSLANGWGSASEDNAASARASLVSSSDGSFLADAHFARALAVAVDSFGFGLEPREADCVFIDASSPPSPRDEIFLTPNLSLPLWEWRPDWLEDMEVSHTQRLGRGMPPWPPDSQISSQRSQLHCRMPKAGASPVDYS
